Source: article PMC12289001

Molecular target: T1, purified HAstV-8 virus particles (strain Yuc-8) (human astrovirus serotype 8 (HAstV-8), strain Yuc-8) (UniProt Q9IFX1)
T1 sequence 1: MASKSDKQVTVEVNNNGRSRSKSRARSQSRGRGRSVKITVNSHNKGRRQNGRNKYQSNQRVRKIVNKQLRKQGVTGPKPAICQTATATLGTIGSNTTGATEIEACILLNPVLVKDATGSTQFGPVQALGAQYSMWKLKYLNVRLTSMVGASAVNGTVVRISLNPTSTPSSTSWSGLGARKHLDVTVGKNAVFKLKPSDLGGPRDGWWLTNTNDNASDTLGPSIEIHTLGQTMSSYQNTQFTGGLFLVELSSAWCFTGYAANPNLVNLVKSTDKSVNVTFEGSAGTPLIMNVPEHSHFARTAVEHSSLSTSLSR
T1 sequence 2: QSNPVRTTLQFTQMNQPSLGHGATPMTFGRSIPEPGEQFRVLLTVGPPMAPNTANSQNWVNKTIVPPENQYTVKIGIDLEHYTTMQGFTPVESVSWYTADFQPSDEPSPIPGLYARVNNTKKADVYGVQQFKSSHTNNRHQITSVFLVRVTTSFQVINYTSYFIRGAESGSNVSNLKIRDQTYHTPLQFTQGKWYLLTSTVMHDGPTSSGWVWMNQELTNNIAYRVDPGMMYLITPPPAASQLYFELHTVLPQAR

recombinant human FCGRT & B2M heterodimer protein (SinoBiological #CT009-H08H), sequence (P55899 24-297): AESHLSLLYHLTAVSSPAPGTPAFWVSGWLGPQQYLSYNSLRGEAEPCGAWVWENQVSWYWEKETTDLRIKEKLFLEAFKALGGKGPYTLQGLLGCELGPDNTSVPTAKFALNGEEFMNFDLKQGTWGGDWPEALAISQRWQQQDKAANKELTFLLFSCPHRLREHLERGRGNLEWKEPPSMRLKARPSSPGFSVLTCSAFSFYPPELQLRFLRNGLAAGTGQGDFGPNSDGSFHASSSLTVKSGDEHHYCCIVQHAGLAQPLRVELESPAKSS
recombinant human FCGRT & B2M heterodimer protein (SinoBiological #CT009-H08H), sequence (P61769 21-119): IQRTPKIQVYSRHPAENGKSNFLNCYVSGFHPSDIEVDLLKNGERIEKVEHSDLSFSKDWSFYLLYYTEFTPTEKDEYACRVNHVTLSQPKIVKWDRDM

For “recombinant human FCGRT & B2M heterodimer protein (SinoBiological #CT009-H08H) (from UniProt P55899 24-297; P61769 21-119) (receptor)”, the FcRn concentration that lowers by 50% the infectivity of the WT chimeric HAstV-1/HAstV-8 virus in Caco-2 cells (neutralization assay with different concentrations of FcRn) was 100 ng/mL.
